Test: soluble on expression in E. coli; label from the status in PepcDB or PDB records

Sequence: MGSDKIHHHHHHMNVTTSTLADGREIIYFDDHELREGERVLHDSRDLPHTQPLSEIRHDPLTNTWVAYAAHRMNRTFMPPANENPLAPTTPGNLPTEIPSPTYDVVVFENRFPSFSMNIAVGEDWESYVDGIDLYPRRPALARCEVVCFTPDVDKSFKDLPVSRIRTVINAWAHRTEALSALSGVQQVFPFENRGEEIGVTLQHPHGQIYSYPFLSPRLQAIVQSAQYYAETHDGHDLFDAIIREESAVQTRVIERTEHFIVFVPAAAKWPVEAMVMPLRAVADFTELTDVERDDLAALLKRLYTAVDSFFEGVTKTPYIAGWTQAPVDPALRPFGRLHLQLFSLMRSPNRMKFLAGSESSQGVWINDTTPERIAQRFKEVWPHATLD
- soluble on expression in E. coli: not soluble

Sequence: CVIFPVEIDVSQTIIRDCQVDKQTRELVYINKIMNTQLTKPVLMMFNISGPIRSVTRKNNNLRDRIKSKVDEQFDQLERDYSDQMDGFHDSIKYFKDEHYSVSCQNGSVLKSKFAKILKSHDYTDKKSIEAYEKYCLPKLVDERNDYYVAVCVLKPGFENGSNQVLSFEYNPIGNKVIVPFAHEINDTGLYEYDVVAYVDSVQFDGEQFEEFVQSLILPSSFKNSEKVLYYNEASKNKSMIYKALEFTTESSWGKSEKYNWKIFCNGFIYDKKSKVLYVKLHNVTSALNKNVILNTIKA
- soluble on expression in E. coli: soluble

Sequence: APQVVDKVAAVVNNGVVLESDVDGLMQSVKLNAAQARQQLPDDATLRHQIMERLIMDQIILQMGQKMGVKISDEQLDQAIANIAKQNNMTLDQMRSRLAYDGLNYNTYRNQIRKEMIISEVRNNEVRRRITILPQEVESLAQQVGNQNDASTELNLSHILIPLPENPTSDQVNEAESQARAIVDQARNGADFGKLAIAHSADQQALNGGQMGWGRIQELPGIFAQALSTAKKGDIVGPIRSGVGFHILKVNDLRGESKNISAAQKDRAYRMLMNRKFSEEAASWMQEQRASAYVKILSN
- soluble on expression in E. coli: soluble

Sequence: MAHHHHHHMASTDEVVLSENRALRVECEAQEVEIAQLKNYLHMSVTKPDLCFGQQRVTLNKCLNSFPEKAWQKLIDETPEVDSPAIITALEDQLADKNKHLTACLQEISNLRSRSGDGKTKPDSITDGNTAHLLSQITFLHNEVERLEQQVNAVRAAGKEELRVMTIEYNDKLQLREKENRLLTEQLRGRKNHLADGEDMAARTKTLESQLATAGIRKKFFTHREKQFPGKNPKIRGCY
- soluble on expression in E. coli: not soluble

Sequence: MFPQADEPERDTLPGQEEDPLPTGQEQPSITPIAGTEAQYIDIAEWYDSDSILYITDEGENSLVYIYNLLTGEKKSLFSSDDAVIKVTANSTHSQFAIQTVTQAGDAPVSIIDSQGELLMKLEDFGEDFSIFWSPYEEDKLIAVAYLPDWEQDLYLIDTSDKQVEMLDLDQSFVQWLDERTIVYLDWNGDSEGYYAPLYTFDLETEEVVLLHEEAIATLGFGDHVTLIIERPEQGAEVTTYQFWNGSEQLAEWSVPILRTYSEQWWIPFYDFDLNKRLFYAYKPNRTGDYFEYDGGFSFIAFDVDHGEETVLFESDEHVPFRLSPTGQRALFGPRLETVMDLPTGESNSLIE
- soluble on expression in E. coli: not soluble

Sequence: VEQSANAFLLVNCNGVVEYVNPSFTAITQYSSEEVSGNKLSELPALENLNQLLLEANSSLTSSNSWQGEFKSRRKNLEPYWGQLSISKVYGDNRELTHYIGIYEDIT
- soluble on expression in E. coli: not soluble

Sequence: TGPQGPPGPAGPKGAKGETGPQGPPGPAGPKGAKGDSGVPLSYEFTQKVESSNGTAVFGLLSNGFVEVRITGSYSSDVFNIPYNYRPLKAGTQMALFSTSGVGVAKVGEDKITIQGYSRNAQCSGTVLYPHREF
- soluble on expression in E. coli: not soluble

Sequence: GPGSMAALRYLLAPRRALVTPFLRSVTCVSSGGIFSSQRPHTFPVLWHAVRTHSNDSGERSKPLTLHVQLPCGTMRTLTAYEGQTLLDVAMEHGLPIEGACGGSCACSTCHVYLENDEAMELFDEATDEENDMLDMAFFPQSTSRLGCQLTLRQQKHDGLKISLPKATRNMYVDGHTITPHH
- soluble on expression in E. coli: not soluble

Sequence: MSLAQISSLFVTRLYHAPLSDHGPAIDAEEMESSCYAIAEDDEAGQGWCEENGYPGYTSYASLTDLPWRFPIFADLVKSLDAHVAAFAEDLEFDLDGRALELEDLWINILPEGGSHASHIHPHSVISGTTYVSMPGGTSALKLEDPRHAMMMAAPARRKTARDELRQFIYVTPAVGDVLLWESWLRHEVPMNMSEDDRISVSFNYRWAEGHHHHHH
- soluble on expression in E. coli: soluble

Sequence: GPGSMNCVQQGKVNVIADNLIPDGKMTEMIIVMKSSVSARANGECLPCDAAQLCEDLTEDIIPYVDNHYRTDADRDNRAIAGLYMGSIQASRLCITRHDLFAYPGMFSGFLSSNWNGIGTDSDHIEALRCDPAAFQAAMKVLFRCIGDDNTYRAAFEADNALLAELGAACERRIYAGSHSWQVWRQAAADFPPMLFKDLSFFPRH
- soluble on expression in E. coli: not soluble

Sequence: MLSLPPPEFYKLWIINKSPYQLFNIYRSGIMKVKVLDASAIIHGYNPIIEEGEHYTTPEVLEEIESKKIIVEQALDFGKLKIMSPNREYIKKVEEVVKKTGDNLSQQDIGVLALALNLNAILYTDDYGIQNVAKKLNIEVRGIAFEPTNKDFIWRKICEGCKKLYPVDYEEDICEICGSPLKRKMVKSRLKKKRKKKLEHHHHHH
- soluble on expression in E. coli: soluble

Sequence: HMGKIYAAMMIMEYYRQSKAKK
- soluble on expression in E. coli: soluble

Sequence: GSHMTTSSRYKTELCRTYSESGRCRYGAKCQFAHGLGELRQANRHPKYKTELCHKFKLQGRCPYGSRCHFIHNPTED
- soluble on expression in E. coli: soluble

Sequence: MGSDKIHHHHHHMQLGTGLFTCQQRPDDDRETSEIYDEMLELGEVIDNAGLDSAWVSEHHFLDDDYLSGVTPALGALAAVTDNIEIGSCIALAPLYDSIRLAEDIATVDQISGGRTTLGMAIGSNVSEFDAFGIPDDERAERLADAVDTLRGAWSDGPLDYEPEFHDISSDVTVTPKPAHDVPLMLGGASRPAVRRAARTADAWCAPSSLSVDGVRKRVEDIRNVRDDEDIEGDFQVYVLQHGFIGDSREDAWAQMRDGYLYIQRRYEEIFSGETVAELDEERKQELKEQAIFGTPDQVTAELESYREALGDDIHFIFRTYHPGTGTQEMAECIRRLGEEVQPKIS
- soluble on expression in E. coli: not soluble

Sequence: MGSDKIHHHHHHMIYKADNNVRQKLVEMFDDFDSTIVLSYLQGHMGSAWVDNLENPTVAQITVGIFVFYAGNPNAEEAEELLYNLPDFTLAIVDSDEWKKRIETVHKGSIEKFQRFRFNKNPGDLDKEYIRDILSTLPQNYEMKKIDKDIAKASSFHALSEDFTSQFDSIDDFIDRGVGYAILNKGQVVSAATSFSIFDDGIEIEIASHPEHRRKGLAKIVASALILDCLDREKYPSWDGANVESVELAKKLGYTFKEPYDTYFIQIKK
- soluble on expression in E. coli: not soluble

Sequence: MSLRPTIYDVAKAAGVSKSLVSLVLRGSPNVSKESEAAVKTAIKKLNYQPNRAASDLAAKRTQLIAVLIDDYSNPWFIDLIQSLSDVLTPKGYRLSVIDSLTSQAGTDPITSALSMRPDGIIIAQDIPDFTVPDSLPPFVIAGTRITQASTHDSVANDDFRGAEIATKHLIDLGHTHIAHLRVGSGAGLRRFESFEATMRAHGLEPLSNDYLGPAVEHAGYTETLALLKEHPEVTAIFSSNDITAIGALGAARELGLRVPEDLSIIGYDNTPLAQTRLINLTTIDDNSIGVGYNAALLLLSMLDPEAPHPEIMHTLQPSLIERGTCAPREGHHHHHH
- soluble on expression in E. coli: soluble

Sequence: MNKPNLENMNPNFPSSPPIDIISPFFPNILVLNSSSSIANAGVTMTAFTAASPNPITKLMLNLFREGNIESESARKPAIVVNAAPSNAFPVSEIASSAASSGDLPLFLSS
- soluble on expression in E. coli: soluble

Sequence: VVLSTAFSQMFGIDYPIVSAPMDLIAGGELAAAVSGAGGLGLIGGGYGDRDWLARQFDLAAGAPVGCGFITWSLARQPQLLDLALQYEPVAVMLSFGDPAVFADAIKSAGTRLVCQIQNRTQAERALQVGADVLVAQGTEAGGHGHGPRSTLTLVPEIVDLVTARGTDIPVIAAGGIADGRGLAAALMLGAAGVLVGTRFYATVEALSTPQARDPLLAATGDDMCRTTIYDQLRRYPWPQGHTMSVLSNALTDQFEDTELDILHREEAMARYWRAVAARDYSIANVTAGQAAGLVNAVLPAADVITGMAQQAARTLTAMRAV
- soluble on expression in E. coli: not soluble

Sequence: MIGAVNSVEAVITSIQGLSGSPEDLSALHDLLRGAQDSLRAEPGVNFSTLDQLDASKHSLGYLYFLEVLTCGPVSKEKAAYEIPIIARFINSCDAGQIRLASYKFVSLCKILKDHVIALGDPLRGVGPLLNAVQKLQVSSKRLTALHPDVLQLCLQAKSYKSGFSILSDDIVEIDQPRDFFLYSYYGGMICIGLKRFQKALELLYNVVTAPMHQVNAIALEAYKKYILVSLIHNGQFTNTLPKCASTAAQRSFKNYTGPYIELGNCYNDGKIGELEALVVARNAEFEEDKNLGLVKQAVSSLYKRNILRLTQKYLTLSLQDIANMVQLGNAKEAEMHVLQMIQDGQIHALINQKDGMVRFLEDPEQYKSSEMIEIMDSVIQRTIGLSKNLLAMDESLSCDPLYLGKVGRERQRYDFGDDFDTVPQKFSM
- soluble on expression in E. coli: soluble

Sequence: MRVVIVGAGLAGLAAAVDLVDAGHRVEIYESRPFVGGKVSSWQDADGNHIEMGLHVFFYNYANLFELMTKVGAIANLLPKEHTHTFINRGGQVGELDFRFPLGAPFNGLKAFFTTRQLSAADKFFNAIALGTSPVVRGLVDYEGAMRQIRALDCMSFAEWFRRHGGSENSLKRLWNPISYALGFIDTEHMSARCMLTIFMMFAAKTTASRLNMLKGSPAEYLLKPLVNYIEARGAKIHLRRRVKEILFRGEDASTWRVEGLVIPRGEALETVTADAYLCACDVPGIQRLIPEAWRSHPTFDNIFKLEAVPVATVQLRFDGWVTELQDPRKQKQVAATGIDNLLYTADADFSCFADLALTSPADYYREGQGSLLQVVLTPGDPFIKASNEEIAQHVLRQVHELFPSSRHLNMTWYSVVKLAQSLYREAPGMDPYRPPQKTPVPNFYLAGSYTQQDYIDSMEGATMSGRQAAQAILAGGHPLEHHHHHH
- soluble on expression in E. coli: soluble

Sequence: MSTKTMKEKAVELLQKCEVVTLASVNKEGYPRPVPMSKIAAEGISTIWMSTGADSLKTIDFLSNPKAGLCFQEKGDSVALMGEVEVVTDEKLKQELWQDWFIEHFPGGPTDPGYVLLKFTANHATYWIEGTFIHKKLD
- soluble on expression in E. coli: soluble

Sequence: MSLIEPDHPDLSIGQQCKLLSIARSSYYYEPKGETEQNLGLMRRIDEQFLETPFFGVRQMTWHLRNDGHLVNEKRIRWLMRLMGLMPIYQKPNTNRPTKGHKTYPYLLRGLRVERPNQVWCSDITYLPMRRGFLYLVAIMDWHTRKVLSWRISNTLEAQFCVDALNEAIHKFGPPEIMNTDQGSQFTSFAWTDRLRRSGVRISPLAHENMRCRAADGRERSVPPLSWFASKPLSGNGQHLHREAVAHPEIRVRLPACLGDRFGDKGGHPEMDDLLQPPAPAFSPRRQATGAGLLAEKEGHHHHHH
- soluble on expression in E. coli: not soluble

Sequence: MGHHHHHHSHMYKFCANALKVILSLRGGVKVYNKENLPADSGFVIACTHSGWVDVITLGVGILPYQIHYMAKKELFQNKWIGSFLKKIHAFPVDRENPGPSSIKTPIKLLKEGEIVGIFPSGTRTSEDVPLKRGAVTIAQMGKAPLVPAAYQGPSSGKELFKKGKMKLIIGEPLHQADFAHLPSKERLAAMTEALNQRIKELENKLDQL
- soluble on expression in E. coli: soluble

Sequence: MLKREMNIADYDAELWQAMEQEKVRQEEHIELIASENYTSPRVMQAQGSQLTNKYAEGYPGKRYYGGCEYVDVVEQLAIDRAKELFGADYANVQPHSGSQANFAVYTALLQPGDTVLGMNLAQGGHLTHGSPVNFSGKLYNIVPYGIDESGKIDYDEMAKLAKEHKPKMIIGGFSAYSGVVDWAKMREIADSIGAYLFVDMAHVAGLIAAGVYPNPVPHAHVVTTTTHKTLAGPRGGLILAKGGDEELYKKLNSAVFPSAQGGPLMHVIAGKAVALKEAMEPEFKVYQQQVAKNAKAMVEVFLNRGYKVVSGGTENHLFLLDLVDKNLTGKEADAALGRANITVNKNSVPNDPKSPFVTSGIRIGSPAVTRRGFKEAEVKELAGWMCDVLDNINDEATIERVKAKVLDICARFPVYA
- soluble on expression in E. coli: not soluble

Reference: the DeepSol protein solubility set
